Substrate: NCCCC[C@H](N)C(=O)O
Assay: Kinetic characterization of LysRS: aminoacylation of M. maripaludis total tRNA with lysine
Format: biochemical, Methanococcus maripaludis
Conditions: other: purified native LysRS 5 nM, 37° C., pH 7.2
Description: To investigate the formation of Lys-tRNA in cell-free extracts prepared from M. maripaludis, (^14C) lysine and homologous total TRNA were used as substrates (6). […] This was confirmed by the observation that (^14C)Lys-tRNA synthesis was inhibited by only one of the 20 canonical amino acids, lysine (FIG. 1). This is consistent with the presence of LysRS, since Lys-tRNA synthesis via a mischarged tRNA would result in a non-labeled amino acid other than lysine being able to inhibit lysylation of tRNA. On the basis of these observations LysRS from M. maripaludis was purified. By standard chromatographic procedures (8), a single 62-kD protein was isolated, which was purified to homogeneity as judged by both silver staining after denaturing polyacrylamide gel electrophoresis (SDS-PAGE) and the appearance of a single symmetrical peak during size exclusion chromatography. […] The enzyme could acylate unfractionated tRNA with lysine to the same degree as the M. maripaludis crude extract (FIG. 1), confirming that the purified protein is LysRS. […] These modified nucleotides have previously been detected at position 34 in all known tRNA^Glu and tRNA^Lys isoacceptors (13).
6. […]
9. […] Sampling and quantification were as described (K. -W. Hong et al., EMBO J. 15, 1983 (1996)).

B1: M. maripaludis LysRS (Methanococcus maripaludis) (protein)
chain: MHWADATSEKIMKKRNAEEYVVSSGITPSGHIHIGNARETLTADAVYKGMLKKGAEAKLIFIADDYDPLRKLYPFLPKEFEKYIGMPLSEIPCPQGCCKSYADHFLMPFLNSLEDLGVEITTHRANECYKAGMYNEAIITALENRLKIKELLDSYRKEPLADNWYPLNVVCEKCGKMHETKVTSYNSEDKTITYVCKCGFENTVQPFNGIGKLPWRVDWPARWNIFGVTAEPMGKDHAASGGSYDTGIKIARQIFNYQAPEKMVYEWIQLKIGDKAMPMSSSSGVVFAVKDWTEICHPEVLRFLILKGKPTKHIDFDLKAISNLVDDYDELERKYFELIEKQKTEELNDNENEKISLYELVTPKIPERLPLQVAYRFCSIIAQIALDKETQKIDMERVFDILGRNGYNPAEFSEYDKSRLEKRLYMSKKWASDYGENLEINDFEQAKEQYETLSEEQKAWLKAFSKEVENIEIDANTIHELMYETATKLNLAPKEAFVASYKILLGKNYGPKLGSFLASLKKEFVIGRFNLTE
With B1 the Km was 2.2 µM and the kcat was 1.6 s⁻¹.
